The text below walks through data of patent KR20130126543A.

The labels stand for the following.
B1: 모노 파아지 클론 B10 (scFv, V domains shown)
VH: QVQLVESGGGLVQPGGSLRLSCAASGFIFDDYAMFWVRQVPGKGLEWVAGINWNGNGIGYGDSVRGRFIISRDNARNSLDLQMNSLRAEDTAVYYCARPSLYGGNSEFDLWGQGTLVTVSS
VL: SQLVLTQPPSVSGAPGQTVTISCTGPTIGAGYDVHWYQQLPGAAPKLLIYGNLNRPSGVPDRFSGSKSGTSASLAITDLQAEDEADYYCHTYDSSLSGSWVFGGGTKLTVL
B2: 모노 파아지 클론 D2 (scFv, V domains shown)
VH: QVQLVESGAEVKKPGSSVKVSCKGSGDTFPNYAINWVRQAPGQGPEWMGRIIPMLGTSDYAEKFQGRVTITADKSTNTAYMGLNSLRSEDTAVYYCVKGPRYYGTDSYYLEKWGQGTMVTVSS
VL: B1 VL
B3: 모노 파아지 클론 A7 (scFv, V domains shown)
VH: QMQLVESGGGLVQPGTSLRLSCAASGFKFEDYAMHWVRQAPGKGLEWVSGVSWNSGTIAYVDSVKGRFTISRDNAKNSLYLQMNSLRAEDTAVYYCARDFTYFYESSGYYAFDLWGQGTMVTVSS
VL: SQLVLTQPPSVSGAPGQRVTISCTGTNSNIGAGYDVHWYQQVPGTTPKLLIYGNTNRPSGVPDRFSGSKSGTSASLAITGLQAEDGGDYYCQSFDSSLTGSVFGTGTKVTVL
B4: 모노 파아지 클론 F2 (scFv, V domains shown)
VH: QVQLVESGAEVKKPGASVKVSCKASGYTFTNYYMHWVRQAPGQGLEWMGIINPSGGNTGYAQKFQGRVTMTRDMSTSTAYMELSSLRSEDTAVYYCARGLPWGENGLDVWGQGTTVTVSS
VL: SQLVLTQPSSVSGAPGQTVTISCTGSSSNIGAGYDVHWYQQLPGTAPKVLIYGDSDRPSGVPDRFSGSKSATSASLAITGLQAEDEADYYCQSYDSSLSAYVFGTGTKVTVL

One assay addresses Fc. As to the kind of experiment: mono phage ELISA; Fc coated 100 ng/well; anti-M13-HRP. (In general: In an ELISA, binding on a coated surface is turned into a signal by an enzyme label.)
The molecule B1 gave an OD 490 nm (Fc) of 0.0406 OD490.

Molecule B2 yielded an OD 490 nm (Fc) of 0.0415 OD490.

In turn, B3 yielded an OD 490 nm (Fc) of 0.0421 OD490.

On to B4, for which the OD 490 nm (Fc) was found to be 0.0405 OD490.

In the next assay the target is IL-6R-Fc 항원 (human) (UniProt P08887). Put plainly: mono phage ELISA; ratio of the IL-6R full signal to the a-myc signal.
UniProt P08887, sequence (P08887 20-365 limits assumed): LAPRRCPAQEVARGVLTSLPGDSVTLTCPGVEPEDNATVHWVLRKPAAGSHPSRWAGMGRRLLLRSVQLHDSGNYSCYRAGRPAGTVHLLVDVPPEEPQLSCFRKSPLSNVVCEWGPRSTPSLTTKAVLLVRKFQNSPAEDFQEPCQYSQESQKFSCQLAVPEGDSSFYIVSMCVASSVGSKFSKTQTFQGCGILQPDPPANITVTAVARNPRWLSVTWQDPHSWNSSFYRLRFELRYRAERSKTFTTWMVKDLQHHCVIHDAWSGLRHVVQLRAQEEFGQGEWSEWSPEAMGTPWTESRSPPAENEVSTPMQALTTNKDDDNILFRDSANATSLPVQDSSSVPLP
Regarding B1, the Ratio worked out at 18.6.

In the case of B2, the Ratio is 7.71.

Take B3: the Ratio stood at 31.1.

With B4, the Ratio is 9.96.

For another assay the target is unchanged. As to the kind of experiment: mono phage ELISA; antigen coated 100 ng/well; anti-M13-HRP.
In turn, B1 showed an OD 490 nm (IL-6R full) of 2.1 OD490.

B2: the OD 490 nm (IL-6R full) came to 2.34 OD490.

As to B3, the OD 490 nm (IL-6R full) worked out at 2.48 OD490.

With B4, the OD 490 nm (IL-6R full) was 2.86 OD490.
